Data taken from US20200405868A1, “GEL-FORMING POLYPEPTIDES” (priority 2018, published 2020).
The star is where a group is joined. Palmitoyl = CCCCCCCCCCCCCCCC(=O)*

Legend:
[1] = biological target: FITC-labled GnRH molecule (a peptide) (UniProt P01148); assay: Centricon filter release assay: FITC-GnRH that passed into the lower chamber with carrier at 1 mg/100 ml (control without carrier 72.50)
[2] = biological target: FITC-labled GnRH molecule (a peptide) (UniProt P01148); assay: Centricon filter release assay: FITC-GnRH that passed into the lower chamber with carrier at 1 mg/10 ml (control without carrier 72.50); a lower reading means more retention with the carrier

Fluorescent Reading (average of duplicates) [1]: 58.4
Fluorescent Reading (average of duplicates) [2]: 9
B1: SEQ ID NO:119, Pal-SSPHSY-NH2, gel-forming peptide (peptide)
peptide: Palmitoyl-SSPHSY-NH2
SMILES: CCCCCCCCCCCCCCCC(=O)N[C@@H](CO)C(=O)N[C@@H](CO)C(=O)N1CCC[C@H]1C(=O)N[C@@H](Cc1c[nH]cn1)C(=O)N[C@@H](CO)C(=O)N[C@@H](Cc1ccc(O)cc1)C(N)=O
